Data as given in patent US20260008852A1 (CRYSTAL BIOSCIENCE, published 2026).
Positions count from the first letter of the chain named.

T1: His-tagged human B7-H3 (human, UniProt Q5ZPR3-2 29-245, limits assumed)
T1 construct: Bought His-tagged protein coated on the ELISA plate; also called hu B7-H3; CD276
T1 sequence (looked up): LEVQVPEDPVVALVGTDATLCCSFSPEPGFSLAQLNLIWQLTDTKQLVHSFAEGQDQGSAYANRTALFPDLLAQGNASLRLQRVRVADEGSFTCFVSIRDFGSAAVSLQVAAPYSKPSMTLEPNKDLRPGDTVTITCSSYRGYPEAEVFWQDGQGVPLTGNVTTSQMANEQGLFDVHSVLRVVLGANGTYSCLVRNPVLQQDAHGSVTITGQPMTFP

T2: B7-H3 on CHO-K1 cells stably transfected with B7-H3 (GenScript #M00536) (UniProt Q5ZPR3 29-534, limits assumed)
T2 sequence (looked up): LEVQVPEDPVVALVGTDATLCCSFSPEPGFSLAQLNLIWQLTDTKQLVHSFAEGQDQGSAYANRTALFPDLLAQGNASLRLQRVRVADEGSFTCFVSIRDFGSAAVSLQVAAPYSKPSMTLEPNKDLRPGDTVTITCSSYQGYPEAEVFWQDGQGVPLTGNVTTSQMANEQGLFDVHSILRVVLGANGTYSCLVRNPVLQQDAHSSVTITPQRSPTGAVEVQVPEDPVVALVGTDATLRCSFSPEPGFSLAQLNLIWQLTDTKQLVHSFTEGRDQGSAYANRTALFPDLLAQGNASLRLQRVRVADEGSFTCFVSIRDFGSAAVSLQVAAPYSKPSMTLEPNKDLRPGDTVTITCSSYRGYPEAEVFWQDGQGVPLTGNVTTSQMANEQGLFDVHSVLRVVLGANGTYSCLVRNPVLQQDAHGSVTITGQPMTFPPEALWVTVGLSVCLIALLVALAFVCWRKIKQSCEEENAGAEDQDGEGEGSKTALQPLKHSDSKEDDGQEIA

T3: B7-H3 on B7-H3-expressing CHO cells (Genescript) (UniProt Q5ZPR3 29-534, limits assumed)
T3 construct: whole, on cells; also called CHO-K1/B7-H3; MFI B7-H3
T3 sequence (looked up): T2 sequence (looked up)

T4: His-tagged mouse B7-H3 (mouse, UniProt Q8VE98 29-244, limits assumed)
T4 construct: Bought His-tagged protein coated on the ELISA plate; also called mu B7-H3; murine B7-H3
T4 sequence (looked up): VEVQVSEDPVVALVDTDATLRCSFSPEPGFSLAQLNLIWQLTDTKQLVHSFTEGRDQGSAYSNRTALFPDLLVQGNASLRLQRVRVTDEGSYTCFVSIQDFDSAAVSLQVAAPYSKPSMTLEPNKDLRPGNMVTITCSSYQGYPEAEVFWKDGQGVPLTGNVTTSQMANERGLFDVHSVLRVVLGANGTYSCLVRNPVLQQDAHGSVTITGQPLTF

T5: His-tagged cynomolgus monkey B7-H3 (cynomolgus monkey)
T5 chain: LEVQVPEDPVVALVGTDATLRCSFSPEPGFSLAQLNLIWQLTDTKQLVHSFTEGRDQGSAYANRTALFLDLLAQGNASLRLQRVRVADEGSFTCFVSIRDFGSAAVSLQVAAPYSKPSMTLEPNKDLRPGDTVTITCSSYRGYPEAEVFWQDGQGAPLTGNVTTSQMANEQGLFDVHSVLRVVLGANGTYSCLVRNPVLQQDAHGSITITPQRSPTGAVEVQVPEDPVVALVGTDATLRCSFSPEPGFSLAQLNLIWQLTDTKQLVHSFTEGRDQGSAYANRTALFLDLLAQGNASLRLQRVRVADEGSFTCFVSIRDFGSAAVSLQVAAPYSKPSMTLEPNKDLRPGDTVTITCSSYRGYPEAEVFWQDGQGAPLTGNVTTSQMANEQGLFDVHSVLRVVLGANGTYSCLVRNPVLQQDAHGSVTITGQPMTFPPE

B1: 40579p1.E5 (scFv, V domains shown)
VH: EVQLLESGGGLVQPGGSLRLSCAASGFTFSDDWMTWVRQAPGKGLEWVSAINWNGNSTHYADSVKGRFTVSRDNSKNTLYLQMNSLRAEDTAVYYCAKSRTTYYSSMDVWGQGTTVTVSS
VL: EIVLTQSPGTLSLSPGERATLSCRASQTVGSYLAWYQQKPGQAPRLLIYGASSRATGIPARFSGSGSGTDFTLTISSLQSEDFAVYYCQHYYDWPPYSFGGGTKVEIK
notes: Tested as scFv-Fc (Expi293 supernatant)
B2: 40579p1.G1 (scFv, V domains shown)
VH: EVQLLESGGGLVQPGGSLRLSCAASGFNFSSYWMSWVRQAPGKGLEWVSGISISYGGNAYYADSVKGRFTVSRDNSKNTLYLQMNSLRAEDTAVYYCGRDRSPYQYRSMDVWGQGTTVTVSS
VL: B1 VL with T28S, V29I, G30R, Y32D, D70E, H90Q, Y92N, D93N, Y97L, S98T
notes: as for B1
B3: 40579p1.H7 (scFv, V domains shown)
VH: B2 VH with G10D
VL: B1 VL with T28S, V29I, G30R, Y32D, D70E, H90Q, Y92N, D93N, Y97L, S98T
notes: as for B1
B4: 40511p1.1.A1 (scFv, V domains shown)
VH: DVQLVESGGGVVRPGESLRLSCAASGFTFSNYAMNWVRQAPGEGLEWVSRINYKGYNITYYADSVKGRFTISRDNSKNTLYLQMNSLRAEDTAVYYCAKSGSNSNNFFDYWGLGTLVTVSS
VL: EIVLTQSPGTLSVSPGERATLSCRASQSVNSKLAWYQQRPGQAPRLLIYDASSRATGIPDRFSGSGSGTDFTLTISRLEPEDFAVYYCQQYKNWPPLTFGGGTKVEIK
notes: as for B1
B5: 40633p1.1.A11 (scFv, V domains shown)
VH: EVQLLESGGDLVQPGGSLRLSCAASGFTFNTYWMNWVRQAPGKGLEWVAGINSKGGVTYYADSVKGRFTISRDNSKNTLYLQMNSLRAEDTAVYYCADWNDYDIMDVWGQGTTVTVSS
VL: QSVLTQPPSASGTPGQTITISCSGSSSNVGRRTVNWYQQLPGTAPKLLIYTNAQRPSGVPDRFSGSKSGTSASLAISGLQSEDEADYYCATWDDSLNAWVFGGGTKLTVL
notes: as for B1
B6: 40579p1.F7 (scFv, V domains shown)
VH: B2 VH with N28T, S31D, W33Y
VL: EIVLTQSPGTLSLSPGERATLTCRASQSVGDFLAWYQQKPGQAPRLLIYGASTRAAGIPARFRGSGSGTDFTLTISSLQSEDFAVYYCQQYKNWPPLTFGGGTKVEIK
notes: as for B1
B7: 40579p1.H6 (scFv, V domains shown)
VH: EVQLLESGGGLVQPGGSLRLSCAASGFTVNNAWMSWVRQAPGKGLEWVSAISYGGSIYYADSVKGRFTISRDNSKNTLYLQMNSLRAEDTAVYYCAKHRSTTYNGMDVWGQGTTVTVSS
VL: B6 VL with T22S, D31S, S52N, A60D, S67N, K92Y, N93D
notes: as for B1
B8: 40633p1.2.D11 IgG (antibody, V domains shown)
VH: EVQLESGGGLVQPGGSLRLSCAASGFTVSYYGMSWVRQAPGKGLEWVSAIKQDGSEKYYADSVKGRFTISRDNSKNTLYLQMNSLRAEDTAVYYCARHWNDYSNAMNVWGQGTTVTVSS
VL: QSVLTQPPSASGTPGQRVTISCSGSTSNIAIDFVNWYQQLPGTAPKLLIYTIDQRPSGVPDRFSGSKSGTSASLAISGLQSEDEAVYYCASWDASLNGWVFGRGTKLTVL
B9: 40633p1.2.D1 IgG (antibody, V domains shown)
VH: EVQLLESGGGLVQPGGSLRLSCAASGFTFDVYGMSWVRQAPGKGLEWVSAINWNGGSTYYADSVKGRFTISRDNSENTLYLQMNSLRAEDTAVYYCAKEKWKHFIYYGMDVWGQGTTVTVSS
VL: QSVLTQPASASGTPGQTVSISCSGSSSNIDSNTANWYQQLPGTAPKLLIYSNNQRPSGVPDRFSGSKSDTSASLAISGLQSEDEGDYYCSAWDDNLNGWLFGGGTKLTVL
B10: 40633p1.2.C3 IgG (antibody, V domains shown)
VH: EVQLLESGGGLVQPGGSLRLSCAASGFTVSYYGMSWVRQAPGKGLEWVSAIKQDGSEKYYADSVKGRFTISRDNSKNTLYLQMNSLRAEDTAVYYCARHWNDYSNAMNVWEQGTTVTVSS
VL: QSVLTQPPSASGTPGQRVTISCSGSNSNVGGNYVSWYQQLPGTAPKLLIYRNSQRPSGVPDRFSGSKSGTSASLAISGLQSEDEAVYYCASWDASLNGWVFGGGTKLTVL
B11: 40633p1.2.C11 IgG (antibody, V domains shown)
VH: B5 VH with D10G, N30S, T31S, N35S, S53R, K54N, V57S, K76E, M83V, D98R
VL: QSVLTQPSSASGTPGQRVTISCSGSSSNVGRRAVNWYQQLPGTAPKLLISNSQRPSGVPDRFSGSKSGTSASLAISGLQSEDEADYYCATWDASLNSWVFGGGTKLTVL
B12: 40633p1.2.D7 IgG (antibody, V domains shown)
VH: B5 VH with D10S, N30S, T31S, N35S, A49S, N52S, K54S, G56S, V57A, D98R
VL: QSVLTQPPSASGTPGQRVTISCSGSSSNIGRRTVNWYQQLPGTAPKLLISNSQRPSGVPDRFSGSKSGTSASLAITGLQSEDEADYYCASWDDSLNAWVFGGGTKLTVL
B13: 40633p1.2.C11 (scFv, V domains shown)
VH: B5 VH with D10G, N30S, T31S, N35S, S53R, K54N, V57S, K76E, M83V, D98R
VL: B11 VL
notes: as for B1

Target: T1, His-tagged human B7-H3
Test: ELISA OD450 on hu B7-H3 over OD450 on mu B7-H3
Method: (§1) The variable regions of heavy and light chains were cloned and assembled into a single chain Fv-Fc (ScFv-Fc) mammalian expression vector. Sanger sequencing was performed by GeneWiz and sequences were evaluated using DNASTAR Lasergene 15. Unique scFv-Fes were transiently expressed in Expi293 cells (Life Technologies, #A14527) grown in Expi293 Expression Medium (Life Technologies, #A1435101) after transfection using the ExpiFectamine transfection reagent and supplements (Life Technologies, #A14524). Cells were incubated for 3-5 days with shaking at 37° C. in a 5% CO2 humidified incubator.

hu:mu ratio	Binder
1.36	B1
0.966	B2
0.971	B3
1.87	B4
1.63	B5
1.32	B6
1.28	B7

Target: T2, B7-H3 on CHO-K1 cells stably …
Test: cell-based or functional assay

ADCC reporter assay, EC50 Value, CHOK1/B7-H3 cells [µg/mL]	ADCC reporter assay, Max RLU, CHOK1/B7-H3 cells [RLU]	Binder
0.107	510000	B8
0.0216	676000	B9
0.402	490000	B10
~1.56	94400	B11
0.0213	820000	B12

Target: T3, B7-H3 on B7-H3-expressing CHO cells …
Test: flow cytometry, B7-H3-expressing CHO cells, 10 ug/ml
Method: Binding of anti-B7-H3 antibodies to cell lines was assessed by flow cytometry. Briefly, approximately 1.5 e5 B7-H3-expressing CHO cells (Genescript) or parent CHO cells (ATCC) were resuspended in FACS buffer (PBS/1% BSA/0.01% NaN3) containing 10 μg/ml of anti-B7-H3 antibodies and incubated for 60 min on ice. […] Cells were then washed twice, resuspended in FACS buffer, and read on an Attune Flow Cytometer (Life Technologies). Data are expressed as Mean Fluorescent Intensities (MFI).

MFI @ 10 ug/ml [MFI]	Binder
89200	B1
87100	B2
74600	B3
34100	B4
64800	B5
18300	B13
64500	B6
67600	B7

Target: T4, His-tagged mouse B7-H3
Test: ELISA, coated His-tagged antigen, scFv-Fc 1 ug/ml
Method: as §1

ELISA OD450 @ 1 ug/ml [OD450]	Binder
1.44	B1
1.79	B2
1.92	B3
1.02	B4
1.27	B5
1.53	B6
1.17	B7

Target: T1, His-tagged human B7-H3
Test: ELISA, coated His-tagged antigen, scFv-Fc 1 ug/ml
Method: as §1

ELISA OD450 @ 1 ug/ml [OD450]	Binder
1.95	B1
1.73	B2
1.86	B3
1.9	B4
2.08	B5
2.02	B6
1.49	B7

Target: T5, His-tagged cynomolgus monkey B7-H3
Test: ELISA, coated His-tagged antigen, scFv-Fc 1 ug/ml
Method: as §1

ELISA OD450 @ 1 ug/ml [OD450]	Binder
2.17	B1
1.73	B2
1.73	B3
2.27	B4
1.77	B5
0.045	B13
2.28	B6
1.7	B7
